Measurements published in patent publication US20190336574A1 (TRUSTEES OF PRINCETON UNIVERSITY, published 2019).
Numbering of substitutions follows the chain as printed.

Experiments:
[1] = target: T1, HA-SND1 R255E, full-length human (human, UniProt Q7KZF4 1-910); assay: co-IP (anti-Myc) from HEK293T lysates, western blot
T1 construct: Full-length, HA-tagged
T1 sequence: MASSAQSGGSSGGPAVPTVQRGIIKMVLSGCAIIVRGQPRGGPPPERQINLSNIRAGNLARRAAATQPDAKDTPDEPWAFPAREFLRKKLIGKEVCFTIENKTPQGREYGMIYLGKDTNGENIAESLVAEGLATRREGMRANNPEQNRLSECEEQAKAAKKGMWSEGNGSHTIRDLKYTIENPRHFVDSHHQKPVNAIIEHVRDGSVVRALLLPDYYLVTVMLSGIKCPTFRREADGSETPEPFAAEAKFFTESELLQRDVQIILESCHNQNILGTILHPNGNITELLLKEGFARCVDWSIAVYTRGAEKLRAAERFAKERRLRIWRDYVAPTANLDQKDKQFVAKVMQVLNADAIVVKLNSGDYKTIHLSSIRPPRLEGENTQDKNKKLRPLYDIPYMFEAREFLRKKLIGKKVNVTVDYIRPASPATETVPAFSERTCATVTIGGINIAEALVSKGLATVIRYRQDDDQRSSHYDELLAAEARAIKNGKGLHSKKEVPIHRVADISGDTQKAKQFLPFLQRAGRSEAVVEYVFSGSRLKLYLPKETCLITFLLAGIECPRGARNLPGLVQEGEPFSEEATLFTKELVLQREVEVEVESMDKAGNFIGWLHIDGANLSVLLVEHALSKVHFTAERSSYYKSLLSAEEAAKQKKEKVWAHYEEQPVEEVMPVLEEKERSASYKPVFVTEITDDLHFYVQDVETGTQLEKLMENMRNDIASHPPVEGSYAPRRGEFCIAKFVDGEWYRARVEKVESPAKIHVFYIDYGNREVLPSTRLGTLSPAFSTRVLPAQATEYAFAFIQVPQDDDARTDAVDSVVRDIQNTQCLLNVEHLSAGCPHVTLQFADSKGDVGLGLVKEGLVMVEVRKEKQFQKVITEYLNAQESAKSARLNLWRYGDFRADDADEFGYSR

[2] = target: T2, HA-SND1 Δ39-43, full-length human (human, UniProt Q7KZF4 1-910); assay: as above
T2 construct: also called 439-43
T2 sequence: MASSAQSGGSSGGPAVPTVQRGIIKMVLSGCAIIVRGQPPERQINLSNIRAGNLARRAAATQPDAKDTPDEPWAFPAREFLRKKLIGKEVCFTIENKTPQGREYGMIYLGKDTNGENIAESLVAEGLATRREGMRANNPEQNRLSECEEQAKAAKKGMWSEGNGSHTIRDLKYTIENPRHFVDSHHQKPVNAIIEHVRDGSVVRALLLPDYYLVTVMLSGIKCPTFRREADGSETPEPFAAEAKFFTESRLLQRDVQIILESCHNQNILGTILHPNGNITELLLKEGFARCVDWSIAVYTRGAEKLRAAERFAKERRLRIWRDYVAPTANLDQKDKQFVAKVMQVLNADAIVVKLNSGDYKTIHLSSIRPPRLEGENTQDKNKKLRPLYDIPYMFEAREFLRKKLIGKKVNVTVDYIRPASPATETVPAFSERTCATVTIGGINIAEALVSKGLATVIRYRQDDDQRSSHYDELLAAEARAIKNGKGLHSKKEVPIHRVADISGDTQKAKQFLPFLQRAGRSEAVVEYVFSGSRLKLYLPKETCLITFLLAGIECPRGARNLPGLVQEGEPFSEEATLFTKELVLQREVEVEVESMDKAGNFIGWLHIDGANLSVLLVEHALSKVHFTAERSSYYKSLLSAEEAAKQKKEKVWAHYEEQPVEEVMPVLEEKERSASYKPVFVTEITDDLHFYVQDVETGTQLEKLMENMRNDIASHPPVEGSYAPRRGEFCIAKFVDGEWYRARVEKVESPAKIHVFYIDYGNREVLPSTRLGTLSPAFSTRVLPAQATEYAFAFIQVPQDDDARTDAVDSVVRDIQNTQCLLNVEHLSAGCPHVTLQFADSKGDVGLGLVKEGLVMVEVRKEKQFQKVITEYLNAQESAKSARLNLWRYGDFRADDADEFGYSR

[3] = target: T3, HA-SND1, full-length human, wild type (human, UniProt Q7KZF4 1-910); assay: cell-based or functional assay
T3 sequence: T1 sequence with E255R

B1: Myc-MTDH, full-length human, wild type (other)
chain: MAARSWQDELAQQAEEGSARLREMLSVGLGFLRTELGLDLGLEPKRYPGWVILVGTGALGLLLLFLLGYGWAAACAGSRKKRRSPPRKREEAAAVPAAAPDDLALLKNLRSEEQKKKNRKKLSEKPKPNGRTVEVAEGEAVRTPQSVTAKQPPEIDKKNEKSKKNKKKSKSDAKAVQNSSRHDGKEVDEGAWETKISHREKRQQRKRDKVLTDSGSLDSTIPGIENTITVTTEQLTTASFPVGSKKNKGDSHLNVQVSNFKSGKGDSTLQVSSGLNENLTVNGGGWNEKSVKLSSQISAGEEKWNSVSPASAGKRKAEPSAWSQDTGDANTNGKDWGRSWSDRSIFSGIGSTAEPVSQSTTSDYQWDVSRNQPYIDDEWSGLNGLSSADPNSDWNAPAEEWGNWVDEERASLLKSQEPIPDDQKVSDDDKEKGEGALPTGKSKKKKKKKKKQGEDNSTAQDTEELEKEIREDLPVNTSKTRPKQEKAFSLKTISTSDPAEVLVKNSQPIKTLPPATSTEPSVILSKSDSDKSSSQVPPILQETDKSKSNTKQNSVPPSQTKSETSWESPKQIKKKKKARRET
notes: Full-length, Myc-tagged; Expressed in HEK293T cells, tested in lysate; also called Myc-tagged MTDH; WT Myc-MTDH
**Q.** What does the source list for B1?
**A.** binding result [1]: no binding; binding result [2]: no binding; half-life of HA-SND1 in HEK293T cells at 45° C (heat shock) [3]: > 3 h
